In patent US20170355757A1 (Regeneron, published 2017):
Where a chain is given by its changes, count along the chain named. Numbers in names are those of the source.

T1: hC5a (human, UniProt P01031 678-751)
T1 sequence (looked up): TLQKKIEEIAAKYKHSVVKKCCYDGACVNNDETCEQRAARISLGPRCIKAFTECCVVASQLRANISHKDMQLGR

B1: H4H12166P7 (antibody, human IgG4, V domains shown)
VH: QVQLQESGPGLVKPSETLSLTCTVSGDSVSSSYWTWIRQPPGKGLEWIGYIYYSGSSNYNPSLKSRATISVDTSKNQFSLKLSSVTAADTAVYYCAREHNVDTTMIFDYWGQGTLVTVSS
VL: AIQMTQSPSSLSASVGDRVTITCRASQGIRNDLGWYQQKPGKAPKLLIYAASSLQSGVPSRFAGRGSGTDFTLTISSLQPEDFATYYCLQDFNYPWHFGQGTKVEIK
notes: histidine-mutated CDR variant of H4H12166P; human IgG4 (S108P)
B2: H4H12166P10 (antibody, human IgG4, V domains shown)
VH: B1 VH with H99G, F107H
VL: B1 VL
notes: as for B1
B3: H4H12166P8 (antibody, human IgG4, V domains shown)
VH: B1 VH with H99G, T103H
VL: B1 VL with L89H, H97T
notes: as for B1
B4: H4H12166P9 (antibody, human IgG4, V domains shown)
VH: B1 VH with H99G, T103H
VL: B1 VL
notes: as for B1
B5: H2aM11694N (antibody, mouse IgG2, V domains shown)
VH: EVQLVESGGGVVRPGGSLRLSCAASGFTFDDYGMTWVRQAPGKGLEWVSGINWNGDSTEYSDSVKGRFTISRDNAKNSLYLQMNSLRAEDTAFYHCARENNWNFYFDYWGQGTLVTVSS
VL: EIVMTQSPATLSVSRGERATLSCRASQSVSSNLAWYQQKLGQAPRLLIYGASTRATGIPARFSGSGSGTEFTLTISSLQSEDFAVYYCQQYNNWPWTFGQGTKVEIK
B6: H2aM11695N (antibody, mouse IgG2, V domains shown)
VH: QVHLVQSGAEVKKPGASVKVSCKVSGNTLTELSMHWVRQAPGKGLEWMGGFDPEDGDTIYSQKFQGRVTLTEDTSTDTAYMELSSLRSEDTAVYYCSTVGGPTSDCWGQGTLVTVSS
VL: DIQMTQSPSSLSASVGDRVTITCQASQDISNYLNWYQQKPGKAPKVLIFDASNLEPGVPSRFSGSGSGTDFTFTIISLQPEDIATYYCQQYDNLPITFGQGTRLDIK
B7: H2aM11684N (antibody, mouse IgG2, V domains shown)
VH: QVQLQESGPGLVKPSQTLSLTCTVSGGSISSGAYHWSWIRQHPGKGLEWIGYIYYNGDTYYNPSLKSRVTISVDTSKNQFFLKVTSVTAADTAMYYCAGEKQLTAFDIWGQGTLVTVSS
VL: VIQMTQSPSSLSASVGDRVTITCRASQDINNFLNWYQQKLGKAPKLLISDASNLQTGVPSRFSGSGSGTDFTFTISSLQPEDIAAYYCQQYDHFPYTFGQGTRLENN
B8: H2aM11682N (antibody, mouse IgG2, V domains shown)
VH: QEQLVQSGAEVKKPGASVKVSCKASGYTFTGYYIHWVRQAPGLGLEWMGWINPNSGGTKYAQKFQGRVTMTRDTSINTAYMELKRLKSDDSAVYYCARDAPPHDVFDIWGQGTLVTVSS
VL: DIQMTQSPSSLSASVGDRVTITCRASQGIRNDLGWYQQKPGKAPKRLIYAASSLQIGVPSRFSGSGSGTEFTLTISSLQPEDFATYYCLQHNSYPLTFGGGTKVEIK

The binders below were run against T2, human C5 (human, UniProt P01031 19-1676) (assay: cell-based or functional assay).

In order of rising “IC50, inhibition of CDC of Daudi cells, 1.66% human serum, 2 nM anti-CD20 antibody” value:
1. B4  3.9 nM
2. B3  4.1 nM
3. B1  7.3 nM
4. B2  12 nM

Each binder was assayed against human C5 R885H-mmh (human, UniProt P01031 19-1676) (assay: cell-based or functional assay).

In order of rising “IC50, inhibition of CDC of Daudi cells, C5 depleted human serum and 6.6 nM C5 Variant R885H, 7 nM anti-CD20 antibody” value:
1. B4  1.7 nM
2. B3  2.1 nM
3. B1  4.2 nM
4. B2  7 nM

These binders were tested against African green monkey C5 (African green monkey) (assay: cell-based or functional assay).

B1 and B2 cannot be ordered by “IC50, inhibition of CDC of Daudi cells, 1.66% African Green monkey serum, 10 nM anti-CD20 antibody” value: greater than 60 nM for the first, greater than 100 nM for the second.

B3 and B4 cannot be ordered by “IC50, inhibition of CDC of Daudi cells, 1.66% African Green monkey serum, 10 nM anti-CD20 antibody” value: greater than 20 nM for the first, greater than 10 nM for the second.

In order of rising “Max % Inhibition of CDC of Daudi cells, 1.66% African Green monkey serum, 10 nM anti-CD20 antibody” value:
1. B2  34%
2. B1  61%
3. B3  79%
4. B4  85%

These binders were tested against human C5 R885C-mmh (human, UniProt P01031 19-1676) (assay: cell-based or functional assay).

In order of rising “IC50, inhibition of CDC of Daudi cells, C5 depleted human serum and 6.6 nM C5 Variant R885C, 30 nM anti-CD20 antibody” value:
1. B4  0.77 nM
2. B3  1.2 nM
3. B1  2.3 nM
4. B2  3.5 nM

Biological target: T2, human C5
Assay: cell-based or functional assay
Remark: another data set of the same source

In order of falling “Human AP % Max Inhibition, hemolysis assay, 5% NHS” value:
1. B1  83.2%
2. B3  73.3%
3. B4  72.2%

In order of rising “Human AP IC50, hemolysis assay, 5% NHS” value:
1. B4  53.5 nM
2. B3  73 nM
3. B1  156 nM

In order of rising “Human CP % Max Inhibition, hemolysis assay, 5% NHS” value:
1. B2  74%
2. B1  93.7%
3. B4  93.7%
4. B3  95.7%

In order of falling “Human CP IC50, hemolysis assay, 5% NHS” value:
1. B2  44.4 nM
2. B1  24.3 nM
3. B3  14.1 nM
4. B4  11.6 nM

Each binder was assayed against T1, hC5a (assay: cell-based or functional assay).

In order of falling “IC50, inhibition of 500 pM hC5a in HEK293/Gα16/hC5aR1/NFAT-luc cells” value:
1. B8  4.6e-10 M
2. B5  1.4e-10 M
3. B6  4.2e-11 M
4. B7  3.5e-11 M

Each binder was assayed against T2, human C5 (assay: SPR (Biacore), mAb captured, dissociation of human C5 at pH7.4 vs pH6.0, 37°C).
Outline: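 Anti-C5 mAbs (human IgG4 Fc) captured on an amine-coupled mouse anti-human Fc surface; recombinant C5 dissociation followed by Biacore T200 in PBS-T (0.01M phosphate, 0.15M NaCl, 0.05% Tween-20) at pH7.4 or pH6.0. Dissociative half-life (t½) calculated from kd.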

In order of rising “t½ Ratio pH7.4/pH6.0” value:
1. B2  19
2. B1  21
3. B4  28
4. B3  36
